The RNAGym collection of RNA variant scans (doi:10.1073/pnas.2313332121)
This sample holds only a part of the variants without activity.

B1: TPR 5TU (parent)
chain: GGAUCUUCUCGAUCUAACAAAAAAGACAAAUCUGCCACAAAGCUUGAGAGCAUCUUCGGAUGCAGAGGCGGCAGCCUUCGGUGGCGCGAUAGCGCCAACGUUCUCAACUAUGACACGCAAAACGCGUGCUCCGUUGAAUGGAGUUUAUCAUG

Variants of: B1
Test: polymerase ribozyme fitness, log enrichment relative to wild type (log ratio); higher = more active; in vitro selection for triplet polymerase activity
In short: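 Fitness compares each genotype's enrichment to that of the wild type on a logarithmic scale, averaging replicates with inverse-variance weights. The logarithm is base 2. Enrichment came from Illumina sequencing of input and output libraries after one triplicate round of in vitro selection, which included frozen incubation at −7 °C, of PCR-built, transcribed mutant libraries of each subunit of a heterodimeric triplet polymerase ribozyme. Only genotypes with ≥10 input reads and ≥1 read per output were kept.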

Variant	polymerase ribozyme fitness (log ratio)
C18G U61C C85G C95U	≤ -4.2
A19G A52G G58U A64G U139A	≤ -4.2
A19C G67C	≤ -4.2
A19U C85U A107G	≤ -4.2
C18U U144C C149U	-4.09
A19U C51U A91U G94A G133A A137C	≤ -4.2
C18G A21U C35U C95U	-1.12
A19G C79G	≤ -4.2
A19G A39C G92A C116A	≤ -4.2
C18G A22G C27U A41U A49C C57A C93G G140C	-4.12
A19G G92A G124U	-3.61
A19C C54G G94U U111A A115C C125U	≤ -4.2
A19C G80A C96U C99U G124A	0.098
A19G C35U G58A C85A G143A	-3.66
A20C C85G A113U	-3.57
C18G G50A A91G G94C C132G	≤ -4.2
C18U C57A C95U C96A	-1.46
A17U U90G C103A	≤ -4.2
C18U A21G C99G A147U	-0.0193
A19G A29U A49G C118U	≤ -4.2
C18G C96U A119U	-0.786
A20C A40U C95U	-0.74
A20C G68C G83C A89U U102A G140U	≤ -4.2
A19U A40G A110C	≤ -4.2

Variant	polymerase ribozyme fitness (log ratio)
A19U A26C A40U C96A A121C	-2.54
A19G A23G A110U	≤ -4.2
A19U A52C U55A A60C C76U G83A C85U C129G A150G	≤ -4.2
A19U C96U A120G A121C	-0.837
A19U A21C A120C	-1.83
C18G C32U G46C U53A C85U	≤ -4.2
A19G G141C	-0.542
A19G G141U	1.06
A20C C27G C96G A115U	≤ -4.2
A19G C35U C87U C95A	-2.49
A20C G81U G94U A120U U151C	-4.13
A19G A89C C105G	-1.99
A19C A52G	-0.125
A19G C27U G50A	-4.19
A19U C57U G81C C93G C125A	-3.42
C18G C76A C85U	-0.589
A19G C35U C75G C129A U135C U145G	≤ -4.2
C18U G46U G94A C131U	-1.88
A19G A52U G83A A98G C118G G124A U134C G140U	≤ -4.2
A19U G92U A150C	-2.67
C18G U53A U61A A137C	≤ -4.2
C18U C87U C99G	-2.1
A19C G128C	-3
A19C G50C A52G	-2.64

Variant	polymerase ribozyme fitness (log ratio)
A19G A26G	-3.57
C18G G58C G81A	-0.953
A19C A20G U55A G58U C85A G140C	≤ -4.2
A19G C38U A40C C79A G86U C96G	≤ -4.2
A19G U55G C57G A97G A106C	-2.96
A19U U56A	-0.835
A19U A24C G86A G140U	≤ -4.2
A19C G83U	0.141
A17U U90A U102A U127A A137G A138C U151A	≤ -4.2
A19U A21U A23U G67C G88A U102C A150G	≤ -4.2
C18G A21G G48U U82A G100A G136A	≤ -4.2
A19C A20U C54A	-1.03
A19U A73G	0.504
A19U A30U U90G A91C C118G	≤ -4.2
C18G A24U G50U U53A A73G G92A	≤ -4.2
A19C U55G U90G	≤ -4.2
C18U G42C	≤ -4.2
C18G A21G A23C A40U G70A C79G C87G G117C	≤ -4.2
A19U G83C A89C A97G	-2.32
A19G C35U C51U C96U	-1.35
A20C G50U C95U A106U A137C	≤ -4.2
A19G C38A U102C C108U	≤ -4.2
A19C U33A U55A U77G C123G	≤ -4.2
A19G U77A C96U A113G	≤ -4.2

Variant	polymerase ribozyme fitness (log ratio)
C18G U44A G83A C85A A98U U102G	≤ -4.2
A19C U31A G92U	0.391
A19U C79U G83A G88C	≤ -4.2
A19C U82G U109G C116A	-0.158
A19U G62A C96G	-1.02
C18A C93U A113U A119C G140U	-4.1
A19C C57A	0.797
A19G A52U C96U A122G	-2.62
A19U C96U C125G	-0.589
C18U A19C A30C A47U U56A G67C G70A C85G C87A C96U A142C	≤ -4.2
C18U A60G G62A G86A C149U	-3.44
A19U C69A A98U G140C	≤ -4.2
C18G G88A G100C C103G	≤ -4.2
A20C A28U C35A G67U U102A	≤ -4.2
C18A A73G G83C C118U A150G	≤ -4.2
A19G A49G A52C U55A	-4.18
C18U A60U G92U C93U C95U C125U	-4.09
A19U A23U U61A C99A U101G G136C A137C U145A	≤ -4.2
A19G C57U G92A U104G C116U	-4.18
C18U U78A G81U C87G U144A	≤ -4.2
C18U A89C A91G A122U C125A U134C	≤ -4.2
C18U A26U U31A U53A G94U	≤ -4.2
A19U G58U C87U A119U	-2.02
A20C C57G C85A C118U G143C	-3.96

Variant	polymerase ribozyme fitness (log ratio)
A19G C93U	-1.99
A20C G80A U82A C93U A98C	-2.56
C18A C36A G58A A64U C85A	≤ -4.2
A19C G50A	-1.01
A17U U44G U56G G128U	≤ -4.2
A19U G80U	-0.442
A19G A20G C43U A47C U55G C87U C105U U145G	≤ -4.2
C18U G92U A97G U146A	-2.16
C18G G42C C87U A138C U145A	≤ -4.2
A20C G50C C54U G58C G62A C103G C125U A142C	≤ -4.2
C18U C32G C51U C87G	≤ -4.2
A20C A29C G92U C149G	≤ -4.2
A19U U55A C76G C93A	≤ -4.2
C18U C32U G83U	-3.14
A19U A23U U77C C87U A106U C108G C123G	-4.07
C18U G42A C85U C103U	-4.11
C18A A20C U53C G59U C93G U148C	-4.14
A20C C36U G86A A89G C93A G94U G140A G143C	≤ -4.2
C18U G58C A73G C132A	-3.75
C18U A49U	-1.09
A19C A106C	0.458
C18U C51A U53A C57U G59C C95A	-4.09
A19C U61G C93A	-4.05
A19C A52C C85U C96U C108G G140C	≤ -4.2

Variant	polymerase ribozyme fitness (log ratio)
A19C C96U G124C	-0.582
C18G A22G A26U U31G U53A G68U C95U A115G	≤ -4.2
A17U U31A C57U C76U C96G C103G U146C	≤ -4.2
A19C A23G A30C A91G A138U U139G	-4.05
C18G A19U G25U A89U G94A C131U	-3.92
C18U A22G A30G G34U G42U U77A C96A	≤ -4.2
A19G A40C G48U U61A G74C C87A G126U	≤ -4.2
C18A U56A C93A A137G	-4.08
A19C G59A C76G C87U	≤ -4.2
A17U U55A G59C G94U C132G	≤ -4.2
A19U G58A G62A G67A A89G C108A C116A G152U	≤ -4.2
C18U C95U	-0.678
A19G C27U C35A A73G U77A G80C	≤ -4.2
A19U U53A G71C G84A C96U A97U C108G G140U	≤ -4.2
C18U G74C C96A	≤ -4.2
A17U U44A U55G G136A	≤ -4.2
C18G A20C A22U U55G G62A	-3.57
A19G U44A G58A G67A C87A A106G G141U	≤ -4.2
C18G U82C C85A A142C	-2.92
A19U G34A C38U G59C C95A C116A	-4.19
C18A A20U G25C G83A C87U U145A C149A	≤ -4.2
A19U A23G	-3.44
A19C C27G A28C G58C G59C A64C C85U	≤ -4.2
C18U C87U	-1.47

Variant	polymerase ribozyme fitness (log ratio)
A19G G84A U146C	-0.526
A19U C93U U148A	-3.95
A19C G58C G88U A98G C103G	≤ -4.2
A17U U127A	-3.29
A19U A30U C72G C96U A106G A122C G140U	≤ -4.2
A19U G68C C85U	≤ -4.2
C18G C57U G59A G80A G86U C108G C116U U145A C149G G152U	≤ -4.2
A19U A52G U56G G80C G84U A98C A110U	≤ -4.2
C18U U45C A120C	-0.849
C18G G83U C95U	-2.08
A19C C51G U55G C93U G126C	-2.57
C18U G34C U44A C75G C96A C99G A119C	≤ -4.2
C18A	-0.302
C18U	-0.399
C18G	-0.169
A19U A21C C96U C129A	-4.13
A20C C38G	-1.37
A19G A49U U55A C96U	-1.84
A19U A22G C27G A30U G88C C95U	≤ -4.2
A19U C93U	-0.795
A19U C93A	-2.7
C18A U31C A40C G62C A91C A119G	≤ -4.2
C18G C38U C72U	-0.0428
